{"source": "patent US20050095247A1", "about": "(UNIVERSITY OF BRITISH COLUMBIA, published 2005)", "binders": {"B1": {"name": "macrophage EF-1α (murine, from RAW 264.7 cells) (other)", "chain": "GKEKTHINIVVIGHVDSGKSTTTGHLIYKCGGIDKRTIEKFEKEAAEMGKGSFKYAWVLDKLKAERERGITIDISLWKFETSKYYVTIIDAPGHRDFIKNMITGTSQADCAVLIVAAGVGEFEAGISKNGQTREHALLAYTLGVKQLIVGVNKMDSTEPPYSQKRYEEIVKEVSTYIKKIGYNPDTVAFVPISGWNGDNMLEPSANMPWFKGWKVTRKDGSASGTTLLEALDCILPPTRPTDKPLRLPLQDVYKIGGIGTVPVGRVETGVLKPGMVVTFAPVNVTTEVKSVEMHHEALSEALPGDNVGFNVKNVSVKDVRRGNVAGDSKNDPPMEAAGFTAQVIILNHPGQISAGYAPVLDCHTAHIACKFAELKEKIDRRSGKKLEDGPKFLKSGDAAIVDMVPGKPMCVESFSDYPPLGRFAVRDMRQTVAVGVIKAVDKKAAGAGKVTKSAQKAQKAK", "notes": "also called host EF-1α; host-EF-1α"}}, "biological_target": "T1, calmodulin (Homo sapiens (Human), UniProt P0DP23 2-149)", "T1 construct": "also called calmodulin-agarose", "experiment": "pull-down of purified protein on calmodulin-agarose; anti-EF-1α immunoblot"}
{"binder": "B1", "values": [{"measurement": "binding result", "result": "binds"}]}
